{"source": "the DeepSol protein solubility set", "test": "soluble on expression in E. coli; label from the status in PepcDB or PDB records", "data": [{"sequence": "MSKNCKSCKDLKNRGIDVDCCFEIGDKECASLGDDKGFNGKKNDCQDMHDLNDCLLGRADSALDIHDDCDWKGYLKKLVSTLYNLQKMTICAICGIWKKIHWIEEQIEKIWKKIAKMEDDIDNIASQNWEINTRYGIQESTKGMSVSINRGNGDFIFRWKDWGDAEQTQYLGEGEIRGTVNFGMRPSSNASFDWQVRDVVIQNLSYKTNNIRSVPFTLHLYLTRAGEQEIYTKSHDTTKSFNDNINKTLKLNNNGNVGISSSSGWLQFLEFFNDGPVADDRANLQIEFKNNGKPKPPRYI", "values": [{"measurement": "soluble on expression in E. coli", "value": "not soluble"}]}, {"sequence": "MFKAIVSAATLRDALDSVSVLVDECKIRLNEESLSIRAVDPANVGMVDLTLDAAAFESYEAHGGVIGVNLSRLEEVAGMAGAGDLIHLTLDEETRKLNIRIDGLSYTLALIDPDSIRQEPDIPDLDLAANIVLEGTHLDRGIKAADMVSDHIRLRVDGAEETFHIEAEGDTDDVDLSLPPADLISIEAGAADSLFSLDYLKDMNKAIPTDAEVTVELGEEFPVKLHYQIAEGMGTITYMLAPRIQSD", "values": [{"measurement": "soluble on expression in E. coli", "value": "soluble"}]}, {"sequence": "SLYMDTAVSPFYFVSNAPRELLDGVSQTLASRDQLELENRALRQELLLKNSELLMLGQYKQENARLRELLGSPLRQDEQKMVTQVISTVNDPYSDQVVIDKGSVNGVYEGQPVISDKGVVGQVVAVAKLTSRVLLICDATHALPIQVLRNDIRVIAAGNGCTDDLQLEHLPANTDIRVGDVLVTSGLGGRFPEGYPVAVVSSVKLDTQRAYTVIQARPTAGLQRLRYLLLLWGADRNGANPMTPEEVHRVANERLMQMMPQVLPSPDAMGPKLPEPATGIAQPTPQQPATGNAATAPAAPTQPAANRSPQRATPPQSGAQPPARAPGGQ", "values": [{"measurement": "soluble on expression in E. coli", "value": "soluble"}]}, {"sequence": "MGSDKIHHHHHHILPNDESQKLIVNALINANKTNNAIFLALSGYHEPQVVKNGIIHLYINNVLSETISECTYRPNNDSPLDYQNYFYQISSRFKTGDQVRIEVETKDGKYKANAEATVYEPIEIIKADTIESNHSLSETSESLWIYQATKWKIKLQTPTTNHSQYYRVNIKQTYTYRLTNRKTLQDSTAISTQWECSGYYDTALMDGKPGTPNNSDPIINFIPTINNYYNVFNDAYFTNNQYTMTLDSWYSFLLDNKLYKIKKITGKAIIQYYAISPAEYQYLRAANAYADHDSSNLLETPVIFPNNIKGGIGIFAIENPTETSIPLKSIEDY", "values": [{"measurement": "soluble on expression in E. coli", "value": "not soluble"}]}, {"sequence": "MHENMKDSLKRPLQDLRISVIDRCNFRCTYCMPAEVFGPDYAFLQEECLLTFDEIERLARLFISMGVNKIRLTGGEPLLRKDLPKLIARLAKLEGLKDIGLTTNGIHLAKQAKALKEAGLKRVNISLDAIEDRVFQKINGRHVSTKPVLKGIEAAKEAGLEVKVNMVVKKGMNDSQILPMAQYFKEQEIQLRFIEFMDVGSTNGWNFEQVVTKEQLIEKINRVYPIEPVKPRYFGEVAKLYRYVGNDAEVGFITSVSESFCSSCTRARISADGKFYTCLFGEKGTDLRSLLRENISDASLLKILQHTWEFRTDRYSDERTAESTNKRQKVEMSYIGG", "values": [{"measurement": "soluble on expression in E. coli", "value": "not soluble"}]}, {"sequence": "KLVFLHGLGQDKTAWNDVIAALPHYDCLALDLFDEGKMPENFTTLVEQVATELKGIEEDFVLIGLSLGAMLALALSDYTFPHIKGFIVSGAQHDLKRSFLYKLQLLGLQLLPKSFFKKQGVKKDSFLAFSKSLSTLDLRETIRQIDIPALILCGQKDKPNLLPARKIAELIPNARLSVIKKGGHLLNTKMPIVFAKEITDFLK", "values": [{"measurement": "soluble on expression in E. coli", "value": "not soluble"}]}, {"sequence": "GPGSMSAIKRSLNVGVVGMGNMGIPITRNLAFKARSAMYLQIHSRTLSKARQVCDDMSADGATCAMRIHDRYSTMTKWCDVILLTLAHRAASRKVLLEDSEALVTNARPGQIIVDHTTVDMELSRECAHEAERRGAVFLDAPMSGSPKQAFNNQLVLMVGGPAEQVQRVSPIFRMYADHIHHMGANGSGTAAKLLSQALVASHNAAAAEAMTIANRLGIEDYQKLIQVLDASWGSSTMLRRNAPTMQDLVRNPDKLAPSSGASIDNLLEDLALLDASLPKIEKGDNGNGGREVEEERFPVLDASLRMLGAAVESGMGDRDMAAVIHYIPAAAAMEKEEGVRVQPRGLTSGAFLDRNATGKVNSGPAAAAGAAVAASSPPTPAEIEMDPGSLADSLSAAESSSNGKGSTTQAASIAEPLTTASSQQPPAFTPEDFY", "values": [{"measurement": "soluble on expression in E. coli", "value": "soluble"}]}]}
